From publication PMC4658703 (Science (New York, N.Y.), 2012)
Where two headings read alike, the source gives them in different places.

Key:
[1] = molecular target: T1, Human IGF2R domain 11 (wild type) (human, UniProt P11717 1508-1650); assay: SPR
[2] = molecular target: T1, Human IGF2R domain 11 (wild type); assay: SPR; remark: listed apart in the source

T1 sequence (P11717 1508-1650): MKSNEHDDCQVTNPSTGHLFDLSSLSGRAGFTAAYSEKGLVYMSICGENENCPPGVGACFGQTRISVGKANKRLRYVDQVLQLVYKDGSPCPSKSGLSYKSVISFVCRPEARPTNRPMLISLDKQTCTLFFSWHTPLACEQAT

B1: Chicken IGF2 (ligand, UniProt P33717 24-91, looked up)
chain: AYGTAETLCGGELVDTLQFVCGDRGFYFSRPVGRNNRRINRGIVEECCFRSCDLALLETYCAKSVKSE
modifications: ends and bridges not checked; also: biotin, site not given here
[1]
  Kd: 63 nM
[2]
  Kd: 46 nM
